In the test the target is T1, WT hTNF (wild type human TNF-α, N-terminal 6×His tag) (human, UniProt P01375 77-233).
T1 construct: also called His-TNF
Kind of test: BLI (Octet RED96), His-tagged hTNF on HIS1K biosensor, soluble receptor in solution, global 1:1 fit. As for the experimental part:
KD values were calculated using global fitting with a 1:1 model (R²≥0.95).

T1 sequence (P01375 other isoform, or with tags, fused parts or gaps limits assumed): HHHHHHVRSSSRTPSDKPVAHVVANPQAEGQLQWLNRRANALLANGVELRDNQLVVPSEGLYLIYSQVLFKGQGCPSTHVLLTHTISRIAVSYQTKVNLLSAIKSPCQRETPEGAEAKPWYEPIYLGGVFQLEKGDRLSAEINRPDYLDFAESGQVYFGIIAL

B1: soluble hTNF-R1 (Peprotech) (receptor, human, UniProt P19438 41-201, looked up)
chain: DSVCPQGKYIHPQNNSICCTKCHKGTYLYNDCPGPGQDTDCRECESGSFTASENHLRHCLSCSKCRKEMGQVEISSCTVDRDTVCGCRKNQYRHYWSENLFQCFNCSLCLNGTVHLSCQEKQNTVCTCHAGFFLRENECVSCSNCKKSLECTKLCLPQIEN
notes: Bought soluble receptor used as analyte in the Octet assay; also called p55
One may read the Kd as a measure of binding affinity in units of concentration. Molecule B1 registered a Kd of 10.2 nM.
